In the RNAGym collection of RNA variant scans (doi:10.1073/pnas.2313332121):

B1: TPR t1 (parent)
chain: GACCAAUCUGCCCUCAGAGCUCGAGAACAUCUUCGGAUGCAGAGGAGGCAGGCUUCGGUGGCGCGAUAGCGCCAACGUCCUCAACCUCCAAUGCAUCCCACCACAUGAUGAUGCCUGAAGAGCCUUGGUUUUUUG

Variants of: B1
Assay: polymerase ribozyme fitness, log enrichment relative to wild type (log ratio); higher = more active; in vitro selection for triplet polymerase activity
Method in brief: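 A heterodimeric triplet polymerase ribozyme had each of its subunits mutagenized by PCR into a library, which was transcribed. One round of in vitro selection, done in triplicate, annealed each library with a biotinylated primer, its partner subunit and triplets, then incubated it frozen at −7 °C before gel excision of extended constructs, streptavidin-bead capture and RT-PCR. Fitness is the logarithm of genotype enrichment relative to wild-type enrichment, based on Illumina sequencing of inputs and outputs and inverse-variance-weighted replicate averages. A base-2 logarithm is used, and genotypes were kept only with ≥10 input reads and ≥1 read per output.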

In order of rising “polymerase ribozyme fitness (log ratio)” value:
1. GACCAAUCUGCCCUCAGAGCUCGAGAACAUCUUCGGAUGCAGAGGAGACAGACUUCGGUAGCGCGAUAGCGCUAACGUCCUGAACCUUCAAUGCAUCCCACGACAUGAUGAUGCCUGAAGAGCCUUGGUUUUUUG  -5.86
2. GACCAAUCUGCCCUCAGAGCUCGAGAACAUCUUCGGAUGCAGAGGAGACAGGCUUCGGUGGCGCGAUAGCCCCAACGUCCUCAACCUCCAAUGCAUCCCACCACCUGAUGAUGCCUGAAGAGCCUUGGUUUUUUG  -4.88
3. GACCAAUCUGCCCUCAGAGCUCGAGAACAUCUUCGGAUGCAGAGGAGACAGGCUUCGGUGGCGCGAUAACGCCAACGUCCUCAACCUCCAAUGCAUCCCACCACAUGAUGAUGCCUGAAGAGCCUUGGUUUUUUG  -4.63
4. GACCAAUCUGCCCUCAGAGCUCGAGAACAUCUUCGGAUGCAGAGGAGACAGGCUUCGGUGGCCCGAUAGCGCCAACGUCCUGAACCUCCAAUGCAUCCCACCACAUGAUGAUUCCUGAAGAGCCUUGGUUUAUUG  -3.71
5. GACCAAUCUGCCCUCAGAGCUCGAGAACAUCUUCGGAUGCAGAGGAGACAGGCUUCGGUGGCACGAUAGCGCCAACGUCCUCAACCUCCAACGCAUCCCACCACAUGAUGAUGCCUGAAGAGCCUUGGUUUUUUG  -3.14
6. GACCAAUCUGCCCUCAGAGCUCGAGAACAUCUUCGGAUGCAGAGGAGACAGGCUUCGGUGGCUCGAUAGCGCCAACGUCCUCAACCUCCAAUGCAUCCCAACACAUGAUGAUGCCUGAAGAGCCUUGGUUUUUUG  -2.69
7. GACCAAUCUGCCCUCAGAGCUCGAGAACAUCUUCGGAUGCAGAGGAGACAGGCUUCGGUGGCACGAUAGCGCCAACGUCCUCAACCUCCAAUGCAUCCCAACACAUGAUGAUGCCUGAAGAGCCUUGGUUUUUUG  -2.45
8. GACCAAUCUGCCCUCAGAGCUCGAGAACAUCUUCGGAUGCAGAGGAGACAGGCUUCGGUGGCACGAUAGCGCCAACGUCCUCAACUUCCAAUGCAUCCCACCACAUGAUGAUGCCAGAAGAGCUUUGGUUUUUUG  -2.18
9. GACCAAUCUGCCCUCAGAGCUCGAGAACAUCUUCGGAUGCAGAGGAGACAGGCUUCGGUGGCGCGAUAGCGCCAACUUCCUCAACCUCCAAUGCAUCCCACCACAUGAUGAUGCCUGAAGAGCCUUGGUUUUUUG  -2.11
10. GACCAAUCUGCCCUCAGAGCUCGAGAACAUCUUCGGAUGCAGAGGAGACAGUCUCCGGUGGCGCGAUAGCGCCAACGUCCUCAACCUCCAAUGCAUCCCACCACAUGAUGAUGCCUGAAGAGCCAUGGUUUUUUG  -2.1
11. GACCAAUCUGCCCUCAGAGCUCGAGAACAUCUUCGGAUGCAGAGGAGACAGGCUUCGAUGGCGCGAUAGCGCCAACGCCCUCAACCUCCAAUGCAUCCCACCACAUGAUAAUGCCUGAAGAGCCUUGGUUUUUUG  -1.9
12. GACCAAUCUGCCCUCAGAGCUCGAGAACAUCUUCGGAUGCAGAGGAGACAGGCUUCGGUUGCGCGAUAGCGCCAACGUCCUCAACCUCCAAUGCAUCCCACCAAAUGAUGAUGCCUGAAGAGCCUUGGUUUUUUG  -1.82
13. GACCAAUCUGCCCUCAGAGCUCGAGAACAUCUUCGGAUGCAGAGGAGACAGGCUUCGGUGGCGCGAUAGCGCCAACGUCCUCAACCUCAAAUGCAUCCCACCACAUGAUGAUGCCUGAAGAGCCUUGGUUUUUUG  -1.71
14. GACCAAUCUGCCCUCAGAGCUCGAGAACAUCUUCGGAUGCAGAGGAGACAGGCUUCGGUGGCGCGAUAGCGCCAACGUCCUCAACCUCCAAUGCAUCCCACCACAUGAUGAUGCUUGAAGAGCUUUGGUUUUUUG  -1.31
15. GACCAAUCUGCCCUCAGAGCUCGAGAACAUCUUCGGAUGCAGAGGAGACAGGCUUCGGUGGCGCGAUAGCGCCAACAUCCUCAACCUUCAAUGCAUCCCACCACAUGAUGAUGCCUGAAGAGCCUUGGUUUUUUG  -0.845
16. GACCAAUCUGCCCUCAGAGCUCGAGAACAUCUUCGGAUGCAGAGGAGACAGGCUUCGGUGGCCCGAUAGCGUCAACGUCCUCAACCUCCAAUGCAUCCCACCACAUGAUGAUGCCUGAAGAGCGUUGGUUUUUUG  -0.71
17. GACCAAUCUGCCCUCAGAGCUCGAGAACAUCUUCGGAUGCAGAGGAGACAGGCUUCGGUUGCGCGAUAGCGCCAACGUCCUCAACCUCCAAUGCAUCCCACCACAUGAUGAUGCCUGAAGAGCCUUGGUUUUUUG  -0.531
18. GACCAAUCUGCCCUCAGAGCUCGAGAACAUCUUCGGAUGCAGAGGAGACAGGCUUCGGUGGCUCGAUAGCGCCAACGUCCUCAACCUCCAAUGCAUCCCACCACAUGAUGAUGCCUGAAGAGCCUUGGUUUUUUG  -0.443
19. GACCAAUCUGCCCUCAGAGCUCGAGAACAUCUUCGGAUGCAGAGGAGACAGGCUUCGGUGGCGCGAUAGCGCCAACGUCCUCAAUCUCCAAUGCAUCCCACCACAUGAUGAUGCCUGAAGAGCCUUGGUUUUUUG  -0.302
20. GACCAAUCUGCCCUCAGAGCUCGAGAACAUCUUCGGAUGCAGAGGAGACAGGCUUCGGUGGCGCGAUAGCGCCAACGUCCUCAACCUCCAAUGCAUCCCACCACAUGAUGAUGCCUGAAGAGGCUUGGUUUUUUG  0.439
21. GACCAAUCUGCCCUCAGAGCUCGAGAACAUCUUCGGAUGCAGAGGAGACAGGCUUCGGUGGCGCGAUAGCGCUAACGUCCUCAACCUCCAAUGCAUCCCACCACAUGAUGAUGCCUGAGGAGCCUUGGUUUUUUG  0.718
